One molecule from patent publication US5756684, “Cloning and expression of PUR protein” (Mount Sinai School of Medicine of the City of New York) can be followed below.

One series has as its target GST-Tat (HIV-1, UniProt P04608 P04608:1-86). Nature of the series: EMSA; Tat stated not to bind the upTAR element itself. To be noted: tags: GST; label: 32P end.
Another series has as its target T1, GST-Pur-alpha (Homo sapiens, UniProt Q00577 SEQ:1-322).
T1 sequence: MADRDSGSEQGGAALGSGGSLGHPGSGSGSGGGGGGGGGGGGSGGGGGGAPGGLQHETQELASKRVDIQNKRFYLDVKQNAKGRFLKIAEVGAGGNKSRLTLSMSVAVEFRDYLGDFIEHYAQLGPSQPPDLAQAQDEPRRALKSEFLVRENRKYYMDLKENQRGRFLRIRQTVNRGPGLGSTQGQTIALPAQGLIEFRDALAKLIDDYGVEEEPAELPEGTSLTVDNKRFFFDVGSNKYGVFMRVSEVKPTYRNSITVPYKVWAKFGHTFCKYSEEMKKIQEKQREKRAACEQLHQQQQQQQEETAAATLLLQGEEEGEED
As to the kind of experiment: EMSA; 7.5 pmol; Tat at 1:1 enhances binding nearly 10-fold. The settings on record: tags: N-terminal GST; label: 32P end. The procedure: FIG. 21A. Specificity of binding of Purα to the JCV upTAR element. The different oligonucleotide probes used for the indicated reactions are: JCV+, the purine-rich single strand of the upTAR element; JCV ds, the double-stranded upTAR element, only the pyrimidine-rich strand of which is labeled; JCV−, the pyrimidine-rich strand of the upTAR element.
8.1.2. Binding of PURα to the JVC upTAR PUR Element in the Presence or Absence of Tat All gel shifts were performed as described in Section 6.1.2. using ^32P end-labeled 24-mer oligonucleotide probe representing a dimer of the upTAR element. The purine-rich strand of this oligonucleotide is: 5'-[…]-3' SEQ ID NO:51. For both panels A and B, all Tat, Purα and Purα deletion mutant proteins were employed GST fusion proteins prepared by purification on glutathione agarose columns as described for FIG. 20 and eluted with glutathione. In both panels for lanes labeled +, 7.5 pmoles of each indicated protein were used. Specificity of binding of Purα to the JCV upTAR element. The different oligonucleotide probes used for the indicated reactions are: JCV+, the purine-rich single strand of the upTAR element; JCV ds, the double-stranded upTAR element, only the pyrimidine-rich strand of which is labeled; JCV−, the pyrimidine-rich strand of the upTAR element. Effect of Tat upon biding of a series of Purα deletion mutants to the JCV upTAR element. […]

B1: JCV+ (upTAR purine-rich strand dimer) (ssDNA)
DNA: GGAGGCGGAGGCGGAGGCGGAGGC
For the molecule B1, the binding result with GST-Tat is given as “no binding”; with GST-Pur-alpha, “binds”.
